Measurements from US12472227B2, “Pharmaceutical compositions and use thereof for relieving resistance due to cancer chemotherapy and enhancing effect of cancer chemotherapy” (Rise Biopharmaceuticals Inc., priority 2015, dated 2025).
“Also recorded” adds a separate entry of the source. Read-outs that look alike come from different tables or passages of the source.

What was measured:
BxPC-3 cell line = assay: Transwell matrigel invasion assay, BxPC-3; assay type: cell-based, Human; conditions: 24 hrs; for invasive rate: ONCO P-8 400 ng/ml or IL-8 200 ng/ml alone
Procedure: (§1) The invasion ability of cell was performed by using 8 μm pore size transwell (Corning Fluor® Blok™). The transwell insert was coated with 60 μl matrigel (300 μg/ml in serum-free medium, BD Bioscience) overnight at 37° C. in 5% CO2 atmosphere. 2.5×10^4 cells in 0.2 mL of serum-free growth medium were seeded into the upper chamber coated with matrigel and then treated with IL-8 (200 ng/ml) with/without ONCO P-8 (400 ng/ml). After incubation for 24 hrs at 37° C. in 5% CO2, membrane of upper chamber was fixed with methanol and stained with propidium iodide (PI). The invasive cells in the bottom of membrane were imaged and counted by using an inverted fluorescence microscope (Observer.Z1, Zeiss) in five random fields of each specimen (magnification, ×100).

[1] = test system: gemcitabine-resistant cell (BxPC-3GR); assay: Migration of Gemcitabine-resistant cancer cells; assay type: cell-based, Human; conditions: ONCO P-8 400 ng/ml, IL-8 200 ng/ml
Procedure: (§2) The drug concentration: ONCO P-8 (400 ng/ml), Reparixin (200 nM), IL-8 (200 ng/ml), statistical significance: *P<0.05, **P<0.01,***P<0.001.

BxPC-3GR [2] = assay: Transwell invasion assay, BxPC-3GR; assay type: cell-based, Human; conditions: Gemcitabine 100 nM; for invasion rate: ONCO P-8 400 ng/mL or IL-8 200 ng/mL, versus control
Procedure: as §1
(§3) The Gemcitabine-resistant cancer cells treated by Gemcitabine (100 nM) with ONCO P-8 (400 ng/mL), or treated by Gemcitabine with ONCO P-8 and IL-8 (200 ng/mL), or treated by Gemcitabine with IL-8 respectively for invasion ability assay.
as §2

MIAPaCa2GR cells = assay: MTT cytotoxicity of Gemcitabine, Gemcitabine-resistant MIAPaCa2GR; assay type: cell-based; conditions: Homo sapiens
Procedure: (§4) Human pancreatic cancer (PDAC) cell lines, BxPC3 and MIAPaCa2 were used in the present invention. Gemcitabine resistant BxPC3 cell line (BxPC3GR) was generated as a chemoresistant cell line against gemcitabine by culturing BxPC3 cells in media containing increasing concentrations of gemcitabine and then maintained them at 0.5 μM gemcitabine. Gemcitabine resistant MIAPaCa2 cell line (MIAPaCa2GR) was generated by culturing MIAPaCa2 cells in media containing increasing concentrations of gemcitabine and then maintained them at 0.12 μM gemcitabine. […] MIAPaCa2 and MIAPaCa2GR are maintained in DMEM with 10% FBS, 1% penicillin-streptomycin, and 1% L-Glutamine.
To validate the establishment of Gemcitabine-resistant pancreatic ductal adenocarcinoma (PDAC) cell lines, MTT of Gemcitabine gradient was implemented with parental cells and Gemcitabine-resistant (GR) cells. […]

BxPC-3GR [3] = assay: Cell proliferation assay (CCK-8), BxPC-3GR; assay type: cell-based, Human; conditions: Gemcitabine 100 nM, ONCO P-8 400 ng/mL (47 nM), IL-8 200 ng/mL, 24 hours
Procedure: The Gemcitabine-resistant cancer cells treated by Gemcitabine (100 nM) with ONCO P-8 (400 ng/mL, 47 nM), or treated by Gemcitabine with ONCO P-8 and IL-8 (200 ng/mL, 23.8 nM) for 24 hours.

MIAPaCa2 cells = assay: MTT cytotoxicity of Gemcitabine, parental MIAPaCa2; assay type: cell-based; conditions: Homo sapiens, MIA PaCa-2
Procedure: as §4
(§5) To validate the establishment of Gemcitabine-resistant pancreatic ductal adenocarcinoma (PDAC) cell lines, MTT of Gemcitabine gradient was implemented with parental cells and Gemcitabine-resistant (GR) cells.
(§6) BxPC-3 and BxPC-3GR treated with gemcitabine from 0 nM to 100 nM, and measured by MTT (FIG. 3a). Similarly, MIAPaCa2 and MIAPaCa2GR also treated with gemcitabine from 0 nM to 100 nM, and measured by MTT (FIG. 3b).

BxPC-3GR cells = assay: MTT cytotoxicity of Gemcitabine, Gemcitabine-resistant BxPC-3GR; assay type: cell-based; conditions: Homo sapiens
Procedure: as §4, §5, §6

BxPC-3 cells = assay: MTT cytotoxicity of Gemcitabine, parental BxPC-3; assay type: cell-based; conditions: Homo sapiens, BxPC-3 parental cells
Procedure: as §4, §5, §6

MIAPaCa2GR = assay: Transwell invasion assay, MIAPaCa2GR; assay type: cell-based, Human; conditions: Gemcitabine 100 nM
Procedure: as §1, §3

BxPC-3 xenograft tumor = assay type: in vivo, BALB/c nude mice
Procedure: The PDAC xenograft tumor model treated by ONCO P-8, or treated by Gemcitabine with ONCO P-8, or treated by Gemcitabine, or treated by Gemcitabine, or treated PBS respectively. Gemcitabine administrations were about 100 mg/kg subject weight twice per week. ONCO P-8 administrations were about 500 μg/kg subject weight three times per week. […] The survival rate of xenograft model treated by ONCO P-8 or treated by Gemcitabine with ONCO P-8 is about 100%.
To evaluate the effect of ONCO P-8 in vivo, it was used the BxPC-3 model in 4-week old male BALB/c nude mice in the present invention. Mice were inoculated BxPC-3 cells subcutaneously. After 7 days, mice were treated with PBS or ONCO P-8 (500 μg/kg) by i.p injection three times a week. The initiation tumor size was 128.5±47.8 mm^3 in first treatment.

CXCR2 = target: T1, CXCR2 (Homo sapiens, UniProt P25025); assay: Indirect ELISA binding assay, CXCR2 complex formation; conditions: versus IL-8
T1 sequence (P25025 1-360): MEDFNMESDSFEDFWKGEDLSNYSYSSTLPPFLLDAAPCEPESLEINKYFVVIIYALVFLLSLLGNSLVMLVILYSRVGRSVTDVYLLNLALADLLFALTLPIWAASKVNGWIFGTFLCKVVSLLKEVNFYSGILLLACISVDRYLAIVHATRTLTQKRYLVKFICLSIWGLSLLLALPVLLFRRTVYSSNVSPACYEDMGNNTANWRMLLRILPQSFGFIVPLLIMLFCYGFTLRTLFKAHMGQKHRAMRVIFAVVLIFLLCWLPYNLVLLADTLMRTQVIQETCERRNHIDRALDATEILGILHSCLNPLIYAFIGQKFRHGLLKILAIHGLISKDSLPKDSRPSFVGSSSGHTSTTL
Excerpt: (§7) The Kd Equation include: (1) i=A450nm/A^max450 nm, then i=Ligand/Ligand^max; (2) 1/(1−i)=(Ligtot/i)/Kd−b, b=fqSrec/Kd.

BxPC-3 = assay: Colony formation assay, BxPC-3; assay type: cell-based, Human; conditions: IL-8 200 ng/ml, ONCO P-8 400 ng/ml, 2 weeks
Procedure: Cells were Seeded in a 24-Well Plate at a Density of 1000 Cells Per well, treatment were executed 24 hr after seeding. The treatment included that the cells were treated with IL-8 (200 ng/ml), IL-8 (200 ng/ml) plus ONCO P-8 (400 ng/ml), or ONCO P-8 (400 ng/ml). After 2 weeks, the medium was removed and cells were washed with PBS and stained for 30 min in 0.1% w/v crystal violet (dissolved in methanol; 32675, Fluka® Analytical, USA). Area of colonies were identified by camera and analyzed by ImageJ analysis software. The results were calculated as follows: Colony formation rate (%)=(Treatment area of the colony/Control area of the colony)×100%

CXCR1 = target: T2, CXCR1 (Homo sapiens, UniProt P25024); assay: Indirect ELISA binding assay, CXCR1 complex formation; conditions: versus IL-8
T2 sequence (P25024 1-350): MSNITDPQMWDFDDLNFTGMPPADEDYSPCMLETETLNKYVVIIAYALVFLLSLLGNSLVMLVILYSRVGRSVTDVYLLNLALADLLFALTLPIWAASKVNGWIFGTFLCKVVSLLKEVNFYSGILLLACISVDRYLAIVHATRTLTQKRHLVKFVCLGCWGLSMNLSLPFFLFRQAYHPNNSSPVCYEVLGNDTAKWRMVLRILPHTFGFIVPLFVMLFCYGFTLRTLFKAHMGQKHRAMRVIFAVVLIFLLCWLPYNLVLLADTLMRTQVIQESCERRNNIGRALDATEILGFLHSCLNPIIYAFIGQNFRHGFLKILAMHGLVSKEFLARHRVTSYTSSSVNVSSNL
Excerpt: as §7

[4] = test system: CSC markers (NANOG, OCT4, SOX2, ALDHA1, BMI-1, KLF4, Nestin) in BxPC3GR-derived spheroids; assay: RT-PCR of CSC markers in BxPC3GR-derived spheroids; assay type: cell-based, Human; conditions: ONCO P-8 400 ng/ml (47 nM), Gemcitabine 100 nM
Procedure: FIG. 12A-12G illustrate RT-PCR analysis was performed to determine the effect of ONCO P-8 treatment on the expression levels of NANOG (FIG. 12A), OCT4 (FIG. 12B), SOX2 (FIG. 12C), ALDHA1 (FIG. 12D), BMI-1 (FIG. 12E), KLF4 (FIG. 12F) and Nestin (FIG. 12G) in BxPC3GR-derived spheroids with Gemcitabine. Drug resistance related CSC marker: NANOG, OCT4, SOX2. Cell invasion related CSC marker: ALDHA1, BMI-1. Tumor growth related CSC marker: KLF4, Nestin.
All real-time PCR reactions were performed with specific primers and taqman probes or probes from the Universal Probe Library (Roche Applied Science) in the StepOneTMReal-Time PCR system (Applied Biosystems™). 18 s was used as an internal loading control. The reactions were performed as follows: denaturation for 2 min at 50° C. and 10 min at 95° C., 50 cycles of 95° C. for 15 sec, and 60° C. for 1 min. […] Sequences of all primers used are listed below (F: Forward primer; R: Reverse primer): […]

[5] = IL-8 200 ng/mL + ONCO P-8 400 ng/mL versus IL-8 group

## IL-8: ELR-CXC chemokine CXCL8 (IL-8), ligand of CXCR1 and CXCR2 [reference compound]
BxPC-3 cell line
  invasive rate: can enhance the cell invasion
[1]
  migration rate: can enhance the cell migration
BxPC-3GR [2]
  invasion rate: can enhance

## Nc1ccn([C@@H]2O[C@H](CO)[C@@H](O)C2(F)F)c(=O)n1 [Gemcitabine]
MIAPaCa2GR cells
  IC50: 8620 nM
BxPC-3GR [3]
  proliferation rate: enhanced
MIAPaCa2 cells
  IC50: 251 nM
BxPC-3GR cells; BxPC-3GR cells, read-out: IC50-value in BxPC-3GR cells
  IC50: 236 nM
BxPC-3GR cells; BxPC-3GR resistant cells, read-out: IC50 (nM) Resistant cells
  IC50: 236 nM
BxPC-3 cells
  IC50: 6.13 nM

B1: ONCO P-8: chemokine receptor antagonistic modified peptide (SEQ ID NO: 1), analogous protein of CXCL8 (IL-8), antagonist of CXCR1 and CXCR2 (protein)
chain: GSKELRCQCIRSYSKPFHPKFIKELRVIPASQFCANTEIIVKLSDGRELCLDPKENWVQRVVEKFLKRAENS
modifications: ONCO P-8
MIAPaCa2GR; [5]
  invasion rate in presence of IL-8: can prevent significantly invasion rate
MIAPaCa2GR; ONCO P-8 400 ng/mL, versus control
  invasion rate: decreases invasion rate; also recorded: can inhibit the invasion ability
BxPC-3 xenograft tumor; BxPC-3 xenograft
  survival rate / lifespan: improve the survival rate
BxPC-3 xenograft tumor; BxPC-3 xenograft, FIG. 13C
  survival rate: about 100%
BxPC-3 xenograft tumor; BxPC-3 xenograft, ONCO P-8 500 μg/kg i.p. three times a week, Gemcitabine 100 mg/kg twice per week
  tumor growth (tumor size): significantly inhibited the tumor growth
BxPC-3 xenograft tumor; mouse, in vivo, ip
  body weight of mice: didn't lead to reduce the body weight
BxPC-3 cell line; IL-8 200 ng/ml with ONCO P-8 400 ng/ml
  invasive rate in presence of CXCL8: can neutralize the effect of CXCL8 to reduce the invasive rate
BxPC-3 cell line
  invasive rate: can reduce the invasive rate
[1]
  migration rate: can reduce the migration rate; also recorded: can attenuate
BxPC-3GR [2]; [5]
  invasion rate in presence of IL-8: can prevent significantly invasion rate; also recorded: can neutralize the effect of CXCL8 to reduce the invasive rate
BxPC-3GR [2]
  invasion rate: decreases invasion rate; also recorded: can reduce; also recorded: can inhibit the invasion ability; also recorded: can attenuate
BxPC-3GR [3]
  proliferation rate: significantly attenuated; also recorded: inhibited
CXCR2
  bind to CXCR2 tighter than IL-8: 3-4 fold
BxPC-3
  colony formation rate: can neutralize the effect of CXCL8 to reduce the colony formation rate
CXCR1
  bind to CXCR1 tighter than IL-8: 3-4 fold
[4]
  expression of CSC properties markers: can reduce the expression of these CSC properties markers
